Test results: IntAct's records for PubMed 24855949

Columns and labels:
cdn2a_human CDKN2A = cdn2a_human CDKN2A (UniProt P42771)
iaspp_human PPP1R13L [1] = target: T1, iaspp_human PPP1R13L (UniProt Q8WUF5)
T1 sequence: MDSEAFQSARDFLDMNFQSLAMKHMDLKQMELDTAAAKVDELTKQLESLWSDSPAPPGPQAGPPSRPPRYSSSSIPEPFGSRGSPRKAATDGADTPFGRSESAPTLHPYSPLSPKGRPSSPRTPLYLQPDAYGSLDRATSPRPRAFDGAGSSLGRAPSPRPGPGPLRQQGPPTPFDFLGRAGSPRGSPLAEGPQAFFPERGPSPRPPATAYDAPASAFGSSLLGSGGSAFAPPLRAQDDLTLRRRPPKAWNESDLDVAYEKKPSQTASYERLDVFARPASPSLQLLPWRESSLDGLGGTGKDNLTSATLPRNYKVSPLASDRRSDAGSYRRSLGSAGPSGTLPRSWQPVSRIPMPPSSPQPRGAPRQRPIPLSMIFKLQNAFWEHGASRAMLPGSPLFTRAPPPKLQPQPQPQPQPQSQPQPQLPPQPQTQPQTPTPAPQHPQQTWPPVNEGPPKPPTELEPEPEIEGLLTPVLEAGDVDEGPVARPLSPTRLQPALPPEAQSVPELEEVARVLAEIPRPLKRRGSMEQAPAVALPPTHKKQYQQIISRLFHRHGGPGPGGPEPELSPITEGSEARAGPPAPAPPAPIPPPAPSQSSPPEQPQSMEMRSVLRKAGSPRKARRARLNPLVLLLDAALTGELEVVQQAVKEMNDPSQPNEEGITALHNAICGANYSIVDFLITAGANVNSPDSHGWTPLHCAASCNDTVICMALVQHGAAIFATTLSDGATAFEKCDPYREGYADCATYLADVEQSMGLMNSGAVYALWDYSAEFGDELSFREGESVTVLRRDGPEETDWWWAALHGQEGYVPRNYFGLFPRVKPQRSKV

iaspp_human PPP1R13L [2] = target: T1, iaspp_human PPP1R13L; remark: listed apart in the source
ikba_chick NFKBIA = ikba_chick NFKBIA (UniProt Q91974)
ikba_chick NFKBIA, sequence (Q91974 whole entry): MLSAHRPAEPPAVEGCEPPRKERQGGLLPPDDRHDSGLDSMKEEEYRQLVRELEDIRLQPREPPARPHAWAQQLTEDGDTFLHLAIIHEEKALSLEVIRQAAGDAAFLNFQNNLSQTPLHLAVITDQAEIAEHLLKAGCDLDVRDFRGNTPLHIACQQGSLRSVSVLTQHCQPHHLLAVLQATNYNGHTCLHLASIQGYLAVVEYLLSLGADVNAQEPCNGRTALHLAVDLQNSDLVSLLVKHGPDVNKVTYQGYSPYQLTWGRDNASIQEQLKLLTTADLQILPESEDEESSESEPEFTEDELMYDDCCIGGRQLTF

effect of a mutation on the interaction (cdn2a_human CDKN2A)	effect of a mutation on the interaction (iaspp_human PPP1R13L [1])	effect of a mutation on the interaction (iaspp_human PPP1R13L [2])	effect of a mutation on the interaction (ikba_chick NFKBIA)	Substance
disrupting interaction strength	disrupting interaction strength	–	–	GTP-binding nuclear protein Ran (Homo sapiens) (from UniProt P62826) Q69L
–	–	decreasing interaction strength	decreasing interaction strength	GTP-binding nuclear protein Ran (Homo sapiens) (from UniProt P62826) V187R;V188R
–	–	–	decreasing interaction strength	GTP-binding nuclear protein Ran (Homo sapiens) (from UniProt P62826) V188R
